The values that follow come from paper PMC8452523 (Cell Reports, 2021).

First the molecules themselves.
B1: REGN10987 (antibody, V domains shown)
VH: QVQLVESGGGVVQPGRSLRLSCAASGFTFSNYAMYWVRQAPGKGLEWVAVISYDGSNKYYADSVKGRFTISRDNSKNTLYLQMNSLRTEDTAVYYCASGSDYGDYLLVYWGQGTLVTVSS
VL: QSALTQPASVSGSPGQSITISCTGTSSDVGGYNYVSWYQQHPGKAPKLMIYDVSKRPSGVSNRFSGSKSGNTASLTISGLQSEDEADYYCNSLTSISTWVFGGGTKLTVL
B2: REGN10933 (antibody, V domains shown)
VH: QVQLVESGGGLVKPGGSLRLSCAASGFTFSDYYMSWIRQAPGKGLEWVSYITYSGSTIYYADSVKGRFTISRDNAKSSLYLQMNSLRAEDTAVYYCARDRGTTMVPFDYWGQGTLVTVSS
VL: DIQMTQSPSSLSASVGDRVTITCQASQDITNYLNWYQQKPGKAPKLLIYAASNLETGVPSRFSGSGSGTDFTFTISGLQPEDIATYYCQQYDNLPLTFGGGTKVEIK
B3: P5C3 human monoclonal antibody (antibody, V domains shown)
VH: QMQLVQSGPEVKKPGTSVKVSCKASGFTFTSSAVQWVRQARGQRLEWIGWIVVGSGNTDYAQQFQERVTITRDMSTSTAYMELSSLGSEDTAVYYCAAPNCSGGSCYDGFDLWGQGTMVTVSS
VL: EIVLTQSPGTLSLSPGERATLSCRGSQSVRSSYLGWYQQKPGQAPRLLIYGASSRATGIPDRFSGSGSGTDFTLTISRLEPEDFAVYYCQQYGSSPWTFGQGTKVEIK

The target in the test is Spike RBD protein (SARS-CoV-2, UniProt P0DTC2). Put plainly: Luminex bead-based competitive binding assay.
With B1, the binding result is listed as “binds”.
Take B2: the binding result is reported as “binds”.
As for B3, the binding result is “binds”.
